These results are taken from the DeepSol protein solubility set.

This series is described as follows: soluble on expression in E. coli; label from the status in PepcDB or PDB records.
In the case of “MSGHKCSYPWDLQDRYAQDKSVVNKMQQKYWETKQAFIKATGKKEDEHVVASDADLDAKLELFHSIQRTCLDLSKAIVLYQKRICFLSQEENELGKFLRSQGFQDKTRAGKMMQATGKALCFSSQQRLALRNPLCRFHQEVETFRHRAISDTWLTVNRMEQCRTEYRGALLWMKDVSQELDPDLYKQMEKFRKVQTQVRLAKKNFDKLKMDVCQKVDLLGASRCNLLSHMLATYQTTLLHFWEKTSHTMAAIHESFKGYQPYEFTTLKVWKLEGPLENLEKSKVLFISQAKSIAESIIIPGLRMLKRELCPQQSLFLSFFLFFYCIRIQYNENLLQSKSAN”, the “soluble on expression in E. coli” value is on record as “soluble”.

As to “MIKVDHRPLYLQVIDKLKHDMEAGVYEEGEKLPSEFELSKQLGVSRATLREALRLLEEEGVVVRRHGVGTFVHTKPLFSAGIEELYSVTDMIRHADMEPGTIFLSSYQIEATDDDKRRFQTDNLDQLMMIERVRTADGVPIVYCLDKLPAELIGQHSVHEINSILDHLESGSDRMITHAVTTIEPIGFHEKVSEILECEAETGLLLLKQMHYDQYDTPVLYSYNYFRADKFTFHVVRKRVKA”, the “soluble on expression in E. coli” value is recorded as “not soluble”. In the case of “MSLHRLQKVVRHIAQTEIMPRFLNTPSRRKEDGSMLSEADIAAQTAFAAALPLLIDCPMLGEEMSRQEQSALWEQYSGEKGLWIVDPIDGTNNFVNGLPHFAVSVAFVRNGRAELGVIYNPVSGECFYAERGQGAFLNGTRLPLRLVDKKLNEAIAGVEIKYLRSGKLSSRMSTLAPFGTIRSMGSSTLDWCYLACGRYDVYVHGGQKLWDYAAGALIFEEAGGRLTTLEGDGFWSGEHVFKRSVVAALEPKLFERWVGWIRENQEGHHHHHH” it was “soluble”. As for “MAVTDLSLTNSSLMPTLNPMIQQLALAIAASWQSLPLKPYQLPEDLGYVEGRLEGEKLVIENRCYQTPQFRKMHLELAKVGKGLDILHCVMFPEPLYGLPLFGCNIVAGPGGVSAAIADLSPTQSDRQLPAAYQKSLAELGQPEFEQQRELPPWGEIFSEYCLFIRPSNVTEEERFVQRVVDFLQIHCHQSIVAEPLSEAQTLEHRQGQIHYCQQQQKNDKTRRVLEKAFGEAWAERYMSQVLFDVIQ”, the “soluble on expression in E. coli” value is listed as “soluble”. Regarding “MNKKIYVGMTADIMHPGLIHIIHEATKYGDVIVGLLTDKAIAEHKRLPYLTYDQRKEVVENIKGVCEVVPQEDWSYVPNLEKLKPDYIIHGDDWKTGPLREVREQVFEVMNAQGGKVIEIPYTRGINSSSLDKDIKAIGTTPDVRLKSLRRLIQAKPVVRILEAHDGLCGLIIENLEVQKGDKREVFDGMWSSSLTDSTSKGKPDIEAVDLTTRLQDLNNILECTTKPIIFDGDTGGKIEHFVFTVRTLERHGISAVIIEDKVGLKKNSLFGTDAIQTQDSIEGFCDKIRAGKNAQVTGDFMIIARIESLIAGKPMSDALERAYAYVQAGADGIMIHSKDKSGEDIREFCRTFRKEYAHVPIVVVPTTYDHVHESELHEWGANVVIYANHLLRAAYPAMMNVARTILENERAEEVRPLCMPIKEILELIPGTK”, the “soluble on expression in E. coli” value is given as “not soluble”. As for “MGSDKIHHHHHHMSEDILPITISLAGEKDTIRLGEDLALALKPGDCLTLIGDLGAGKSTLARAFIRAMADEPDLEVPSPTFTIIQTYTTRIPVAHLDLYRLSDVSELDELGIDEMLEDGICLIEWPDIAAEVLPPAQTITLQLTHSGEGRVAVIEAPAQQKARLDRVFAIREFLAKNGRGDATRRFLSGDASTRAYETISTDGPDLILMDWRRPMRGAIVADGKTYAEIVHLAQDARSFVAIGDYLRNSGFRAPEILAADIDQGILLLEDLGREGVLAADGTPIEERYLQSVACLATLHQTPRPALLPMRDGSTYDIPSFDRQAMKIEVSLLVEWYLPHKRGKALTDGEKQDYYAIWDGLIDALAGCETGLLLRDFHSPNILWQAQNSGIGQVGLIDFQDAMIGPTAYDLASIVQDARVTIPPELQTRLMSHYLNSRKATPAFDEAAFLKAFAIMSAQRNCKLAGIWVRLLERDKKPGYMKHMPRTFRYLADALSHPELAPLREWCVRMGMDFND”, the “soluble on expression in E. coli” value was “not soluble”. With “MIFKQNQNYWAVFDANKETLIVQTCSGLGLTAIDHLYPPHILPLDTDNETLGTTVLQALANSRTFVYDSPEDQDFFDTEKIRQRYEDWVAKLCGNLGYKTRRALFKNMMSVDIWLHNGCLKISPSRHVKLEAWNAIDADDVILSLDNSPEEIGAGLKLALSHCR”, the “soluble on expression in E. coli” value is “not soluble”. The result for “AAVLTQDKNTPTYGPANGKVTVIEFFDYQCVYCSRLAPVMEQVIKAHPQTRFAFKEWPIFGGRWESSLEAAKTGLQIYQQKGADAYLAYHNGIYATGHNEGKLTTADIQQQAKKAGFDAKKAADVEPVLQSINDLAQEIGLSGTPGVIVMPTTGATEASITVFPGLADKASLEAAIKKAGG” reads “not soluble”; that for “MSLATLDVNPELYQAQLADKIARLKAMFVDYSMPELEVFESPVANYRMRAEFRIWHEGDDMYYIMFNQETREKYRVDQFPAASRLINDLMPLLMDAMKGSPILRHKLFQVDFLSTLSGEILVSLLYHRQLSEEWITAAQALKQRLNDEGFNLNLIGRARKMKVVLDRDYVVENLQVNGQPYVYKQVENSFTQPNAKVAEKMLEWAVDCTQESKGDLLELYCGNGNFSLALAQNFERVLATELAKPSVEAAQFNIAANQIGNVQIIRMSAEEFTQAMEGKREFNRLKDAGVDLQSYRCNTIFVDPPRSGMDIDTCKMVQGYERILYISCNPETLQENLQVLGETHQVVRFALFDQFPYTHHMEAGVMLERKKEGHHHHHH”, “soluble”; that for “MAHHHHHHMGCFNSTDAVADQDPASGYMYTKPNAKGTKEALFGGLLYRITDEEEGGLAFYNNSKDYEFHIKYLFGADSELNAVGDTKLEMQDDGILAEVVVYPLETKPFVQGTIDGYETKLEALPLSEEYFALHPEIDEAAYYRRLEAPKSSRF”, “soluble”. On to “MGSDKIHHHHHHMSAELNQPVPRPGILDIAAYVPGKEHVDGVAKVYKLSSNETPLGPSPKAIEAFSAAASHLEIYPDGQAIALRQAIADVHGLNIANILCGNGSDELLGLLCHVYLGAGDEAIITEHGFLVYKIQIMGAGATPVTVKEKDCVVDVDAILAAVTPKTKMVFLANPGNPTGTYVPVAEIRRLQAGLPKHVVLVLDAAYAEYVRKNDYEAGLELVSGNRNVVMTRTFSKVYGLAALRVGWMYAPVDIIDALNRVRGPFNMSAPAIAAGAAAIRDQAFVQKAVAHNALWMEKLVTTFTGLGLTVTPSVANFILIHFPDQDGKRATDADEFLSRRGYILRAVRGYGFPNALRMTVGSEEANLGVIAALTEFMGQA”, for which the “soluble on expression in E. coli” value was “not soluble”. For the sequence “MAHHHHHHMKDYNVTMEVFVQEPDDYVQDQRLLEEILNLTAHQALEAINKPLHEGVLSLSGNVGTMKEKDTITPLARGKPNGVLTQVPTEARREAEERLRREEEERLGGTQEMKFTFSGTIEDVLFRGEFRYKEMKLNDFLLLRFGGRGVVATNRSVLLEEFFKEPARYVPGARVLNEIKITVRYLRIEGTVREEMDLEEVVRMLHHESVFPLSNGRNMKEMTQPLPLQGEN”, the “soluble on expression in E. coli” value is given as “not soluble”. As to “MDGQTLHAWAKRFALELPFTEHCWPFGPQYDVFKVGGKIFMLFTEHHCRPVVNLKSDPQKSLVNQQIYPSIAPGYHMNKKHWISVYAGEDITVSLLNDLINDSWNLVVDGLPKREQLRLRPR”, the “soluble on expression in E. coli” value is reported as “not soluble”. With “MKVVLATGNPGKVRELKEGLAPLGWTLLTLADFALRMPKEEGATFLENALLKAAYVAKATGLPALADDSGLEVYALGGEPGVYSARYGGRATDRERNVYLLERMRHLKGEERKARFVAVLVLAYPDGHAEAYEGSVEGVILEAPRGEGGFGYDPLFYVPEAGKTFAEMGLEEKARYSHRGKALRALLEAYKDGPPPREVSKLE”, the “soluble on expression in E. coli” value is listed as “soluble”.

Take “MDFYDTDELRDFMALVEKTNDIKKIALFRILAFTGIRKGELLALEWKDYRKSTLDINKAISHSPVGYEILPPKANSNRLLSLDEKTCKILDELHQTYPESTRIFESENGGMLSPSKPRKWLLEITKEKEIEPIRIHAFRHTHASLLFESGMSLKQVQYRLGHADLKTTMNIYTHITKLEHHHHHH”: the “soluble on expression in E. coli” value is recorded as “not soluble”. Regarding “MLSCVIPAHDEAALIGQTLQCLHACAQAMQLDYEAIVVADACSDDTAAIARANGASVIEVELRHIAATRNAGAQAAQGDRLLFLDADTQVNPQVMAAALAALDAGAVGGGARVHLHGKRVWVERMAQAVFGWIFRLSGIAPGCFLFCTRAAFASAGGFDTRYYAGEDVALSRSLARCGRFVILRQTVHTSDRKLRSFSKREHVGLLLRFLWRGRRMLQTRDALGFWYQRRRLEHHHHHH”, the “soluble on expression in E. coli” value is reported as “not soluble”. For the sequence “MQQRRPVRRALLSVSDKAGIVEFAQALSARGVELLSTGGTARLLAEKGLPVTEVSDYTGFPEMMDGRVKTLHPKVHGGILGRRGQDDAIMEEHQIQPIDMVVVNLYPFAQTVAREGCSLEDAVENIDIGGPTMVRSAAKNHKDVAIVVKSSDYDAIIKEMDDNEGSLTLATRFDLAIKAFEHTAAYDSMIANYFGSMVPAYHGESKEAAGRFPRTLNLNFIKKLDMRYGENSHQQAAFYIEENVKEASVATATQVQGKALSYNNIADTDAALECVKEFAEPACVIVKHANPCGVAIGNSILDAYDRAYKTDPTSAFGGIIAFNRELDAETAQAIISRQFVEVIIAPSASEEALKITAAKQNVRVLTCGQWGERVPGLDFKRVNGGLLVQDRDLGMVGAEELRVVTKRQPSEQELRDALFCWKVAKFVKSNAIVYAKNNMTIGIGAGQMSRVYSAKIAGIKAADEGLEVKGSSMASDAFFPFRDGIDAAAAAGVTCVIQPGGSIRDDEVIAAADEHGIAMLFTDMRHFRH”, the “soluble on expression in E. coli” value is “soluble”. “MAHHHHHHMADYGWTRGKLPKFRARSPFHRQQIARRMVTEMIRKDYCIVGGARAPALRILADHVVELAKAGDTDSRQQLAYFLHDPLMVDKAFDEYPRRFKDMNAKYAMMTRLKSRRRTDAVAMYFVEYKNRDMSDNHKGEDYSAGPERFFLPPRIVETEKGIQRPPHMQMAFDRWASKFKTEEFHHWWRLRHAKLRYWGVRNVPHPSDVDPLWTEKEEEEWHNEMLANTGEYEDLDLDDESYTAAGEGGEPSPAGDGPQPQRVG”: the “soluble on expression in E. coli” value was “not soluble”. “MGSDKIHHHHHHSEEIFNGQVTDGEHSGAQLNIVPTVSSESTETRAGFDPKTDWAAGDALGLFMYKSSGWGDAYPRYDAQNNKSTRQANGWSQASPVYLLVDKATIWAYYPYNQAVTDGTKIPVPINVGTSVDYMWGKSTNQVSVIETDARIPMKHALSQFVVRLKVSPEYHNDGNLTSAKLKATGAKFATTGTMNLNDGGKITFQPTSTELTWSPNTTVPAQGQQAVDYAAAIYPMTLAAGEVSLEVVIDGATYTYAIPQITWEAGKRYIYSITMRSNDAEIGGENGQSVTIEGWTSTEEDITLVPVK”: the “soluble on expression in E. coli” value was “not soluble”.

As for “MKTKNEPKVILELAKESDLPEFQKKLQEAFAIAVIETFGDCEDGPIPSDNDVQESFNAPGAVVYHILQDGKNVGGAVVRINSQTNHNSLDLFYVSPEYHSQGIGLSAWKAIEAQYPDTVLWETVTPYFEKRNINFYVNKCGFHIVEFYNEHHSNPHMHRNGREDDKPLLNDDDFFRFVKIMKKKD”, the “soluble on expression in E. coli” value is given as “not soluble”. Consider “ETISAFSNQVIQRGATGDDVVELQARLQYNGYYNGKIDGVYGWGTYWAVRNFQDQFGLKEVDGLVGAKTKQTLICKSKYYREYVMEQLNKGNTFTHYGKIPLKYQTKPSKAATQKARQQAEARQKQPAEKTTQKPKANANKQQNNTPAKARKQDAVAANMPGGFSNNDIRLLAQAVYGEARGEPYEGQVAIAAVILNRLNSPLFPNSVAGVIFEPLAFTAVADGQIYMQPNETAREAVLDAINGWDPSEEALYYFNPDTATSPWIWGRPQIKRIGKHIFCE”, for which the “soluble on expression in E. coli” value was “not soluble”. Regarding “MTGITVSDSAARRIAKILDSEPGKTALRVSVEGGGCSGFSYKYDLVDAQTEDDIVIEKLGARVLIDSISVPYMDGSEIDFVDDLMGQSFQIRNPNATASCGCGTSFAILEHHHHHH”, the “soluble on expression in E. coli” value is “soluble”.
